Patent US20260167699A1 (Chugai, published 2026)

Each binder was assayed against T1, FcγRIIIa (human, UniProt P08637 17-208) (assay: SPR (Biacore);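 also: antibody variants captured on an SPR sensor chip, with FcγRIIIa passed over as analyte in HBS-EP+ buffer at 25 °C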).
T1 construct: extracellular domain; also called 3a; FcγRIIIa extracellular domain
T1 sequence (P08637 other isoform, or with tags, fused parts or gaps): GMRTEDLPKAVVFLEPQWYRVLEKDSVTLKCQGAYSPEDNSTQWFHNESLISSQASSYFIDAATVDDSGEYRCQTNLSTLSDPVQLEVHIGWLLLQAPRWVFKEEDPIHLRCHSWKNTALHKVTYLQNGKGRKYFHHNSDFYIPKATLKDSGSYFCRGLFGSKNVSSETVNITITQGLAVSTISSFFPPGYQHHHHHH
Protocol: The antibody of interest was analyzed for its interaction with FcγR using a BiaCore™ T100, BiaCore™ A100, or BiaCore™ 4000 surface plasmon resonance system (GE Healthcare Japan Corp.). The running buffer used was HBS-EP+ (GE Healthcare Japan Corp.). The assay temperature was set to 25° C. The sensor chips used were: a chip prepared by immobilizing antigenic peptides onto Series S Sensor Chip CM5 (GE Healthcare Japan Corp.) by the amine coupling method; a chip prepared by immobilizing antigenic peptides biotinylated in advance onto Series S Sensor Chip SA (certified) (GE Healthcare Japan Corp.) through their interaction; a chip prepared by immobilizing protein L (ACTIGEN, BioVision, Inc.) onto Series S Sensor Chip CM5 (GE Healthcare Japan Corp.); and a chip prepared by immobilizing protein A/G (Thermo Fisher Scientific K.K.) onto Series S Sensor Chip CM5 (GE Healthcare Japan Corp.). The antibody of interest was captured onto any of these chips and allowed to interact with FcγR diluted with a running buffer. The antibody captured on the chip was washed off through the reaction of 10 mM glycine-HCl (pH 1.5) to regenerate the chip, which was repetitively used.

He/Con 3a	Binder
97.8 % of GpH7-A5/GpH7-B3/GpL16-k0	GpH7-A5/GpH7-B3 variant S337_10E/GpL16-k0 (antibody, human IgG1, kappa, copies: 1 + 1 + 2) heavy 1: not shown heavy 2: not shown light: DIVMTQSPLSLPVTPGEPASISCQASESLVHSNRNTYLHWYLQKPGQSPQLLIYKVSNRFSGVPDRFSGSGSGTDFTLKISRVEAEDVGVYYCSQNTHVPPTFGQGTKVEIERTVAAPSVFIFPPSDEQLKSGTASVVCLLNNFYPREAKVQWKVDNALQSGNSQESVTEQDSKDSTYSLSSTLTLSKADYEKHKVYACEVTHQGLSSPVTKSFNRGEC
92.7 % of GpH7-A5/GpH7-B3/GpL16-k0	GpH7-A5/GpH7-B3 variant S337_12R/GpL16-k0 (antibody, human IgG1, kappa, copies: 1 + 1 + 2) heavy 1: not shown heavy 2: not shown light: DIVMTQSPLSLPVTPGEPASISCQASESLVHSNRNTYLHWYLQKPGQSPQLLIYKVSNRFSGVPDRFSGSGSGTDFTLKISRVEAEDVGVYYCSQNTHVPPTFGQGTKVEIERTVAAPSVFIFPPSDEQLKSGTASVVCLLNNFYPREAKVQWKVDNALQSGNSQESVTEQDSKDSTYSLSSTLTLSKADYEKHKVYACEVTHQGLSSPVTKSFNRGEC
102 % of GpH7-A5/GpH7-B3/GpL16-k0	GpH7-A5/GpH7-B3 variant T335_07I/GpL16-k0 (antibody, human IgG1, kappa, copies: 1 + 1 + 2) heavy 1: not shown heavy 2: not shown light: DIVMTQSPLSLPVTPGEPASISCQASESLVHSNRNTYLHWYLQKPGQSPQLLIYKVSNRFSGVPDRFSGSGSGTDFTLKISRVEAEDVGVYYCSQNTHVPPTFGQGTKVEIERTVAAPSVFIFPPSDEQLKSGTASVVCLLNNFYPREAKVQWKVDNALQSGNSQESVTEQDSKDSTYSLSSTLTLSKADYEKHKVYACEVTHQGLSSPVTKSFNRGEC
102 % of GpH7-A5/GpH7-B3/GpL16-k0	GpH7-A5/GpH7-B3 variant T335_10E/GpL16-k0 (antibody, human IgG1, kappa, copies: 1 + 1 + 2) heavy 1: not shown heavy 2: not shown light: DIVMTQSPLSLPVTPGEPASISCQASESLVHSNRNTYLHWYLQKPGQSPQLLIYKVSNRFSGVPDRFSGSGSGTDFTLKISRVEAEDVGVYYCSQNTHVPPTFGQGTKVEIERTVAAPSVFIFPPSDEQLKSGTASVVCLLNNFYPREAKVQWKVDNALQSGNSQESVTEQDSKDSTYSLSSTLTLSKADYEKHKVYACEVTHQGLSSPVTKSFNRGEC
100 % of GpH7-A5/GpH7-B3/GpL16-k0	GpH7-A5/GpH7-B3 variant T335_13S/GpL16-k0 (antibody, human IgG1, kappa, copies: 1 + 1 + 2) heavy 1: not shown heavy 2: not shown light: DIVMTQSPLSLPVTPGEPASISCQASESLVHSNRNTYLHWYLQKPGQSPQLLIYKVSNRFSGVPDRFSGSGSGTDFTLKISRVEAEDVGVYYCSQNTHVPPTFGQGTKVEIERTVAAPSVFIFPPSDEQLKSGTASVVCLLNNFYPREAKVQWKVDNALQSGNSQESVTEQDSKDSTYSLSSTLTLSKADYEKHKVYACEVTHQGLSSPVTKSFNRGEC
97 % of GpH7-A5/GpH7-B3/GpL16-k0	GpH7-A5/GpH7-B3 variant T335_06M/GpL16-k0 (antibody, human IgG1, kappa, copies: 1 + 1 + 2) heavy 1: not shown heavy 2: not shown light: DIVMTQSPLSLPVTPGEPASISCQASESLVHSNRNTYLHWYLQKPGQSPQLLIYKVSNRFSGVPDRFSGSGSGTDFTLKISRVEAEDVGVYYCSQNTHVPPTFGQGTKVEIERTVAAPSVFIFPPSDEQLKSGTASVVCLLNNFYPREAKVQWKVDNALQSGNSQESVTEQDSKDSTYSLSSTLTLSKADYEKHKVYACEVTHQGLSSPVTKSFNRGEC
100 % of GpH7-A5/GpH7-B3/GpL16-k0	GpH7-A5/GpH7-B3 variant T335_05P/GpL16-k0 (antibody, human IgG1, kappa, copies: 1 + 1 + 2) heavy 1: not shown heavy 2: not shown light: DIVMTQSPLSLPVTPGEPASISCQASESLVHSNRNTYLHWYLQKPGQSPQLLIYKVSNRFSGVPDRFSGSGSGTDFTLKISRVEAEDVGVYYCSQNTHVPPTFGQGTKVEIERTVAAPSVFIFPPSDEQLKSGTASVVCLLNNFYPREAKVQWKVDNALQSGNSQESVTEQDSKDSTYSLSSTLTLSKADYEKHKVYACEVTHQGLSSPVTKSFNRGEC
96.9 % of GpH7-A5/GpH7-B3/GpL16-k0	GpH7-A5/GpH7-B3 variant S337_18N/GpL16-k0 (antibody, human IgG1, kappa, copies: 1 + 1 + 2) heavy 1: not shown heavy 2: not shown light: DIVMTQSPLSLPVTPGEPASISCQASESLVHSNRNTYLHWYLQKPGQSPQLLIYKVSNRFSGVPDRFSGSGSGTDFTLKISRVEAEDVGVYYCSQNTHVPPTFGQGTKVEIERTVAAPSVFIFPPSDEQLKSGTASVVCLLNNFYPREAKVQWKVDNALQSGNSQESVTEQDSKDSTYSLSSTLTLSKADYEKHKVYACEVTHQGLSSPVTKSFNRGEC
93.8 % of GpH7-A5/GpH7-B3/GpL16-k0	GpH7-A5/GpH7-B3 variant S337_20W/GpL16-k0 (antibody, human IgG1, kappa, copies: 1 + 1 + 2) heavy 1: not shown heavy 2: not shown light: DIVMTQSPLSLPVTPGEPASISCQASESLVHSNRNTYLHWYLQKPGQSPQLLIYKVSNRFSGVPDRFSGSGSGTDFTLKISRVEAEDVGVYYCSQNTHVPPTFGQGTKVEIERTVAAPSVFIFPPSDEQLKSGTASVVCLLNNFYPREAKVQWKVDNALQSGNSQESVTEQDSKDSTYSLSSTLTLSKADYEKHKVYACEVTHQGLSSPVTKSFNRGEC
96.3 % of GpH7-A5/GpH7-B3/GpL16-k0	GpH7-A5/GpH7-B3 variant T335_03V/GpL16-k0 (antibody, human IgG1, kappa, copies: 1 + 1 + 2) heavy 1: not shown heavy 2: not shown light: DIVMTQSPLSLPVTPGEPASISCQASESLVHSNRNTYLHWYLQKPGQSPQLLIYKVSNRFSGVPDRFSGSGSGTDFTLKISRVEAEDVGVYYCSQNTHVPPTFGQGTKVEIERTVAAPSVFIFPPSDEQLKSGTASVVCLLNNFYPREAKVQWKVDNALQSGNSQESVTEQDSKDSTYSLSSTLTLSKADYEKHKVYACEVTHQGLSSPVTKSFNRGEC
94 % of GpH7-A5/GpH7-B3/GpL16-k0	GpH7-A5/GpH7-B3 variant S337_14T/GpL16-k0 (antibody, human IgG1, kappa, copies: 1 + 1 + 2) heavy 1: not shown heavy 2: not shown light: DIVMTQSPLSLPVTPGEPASISCQASESLVHSNRNTYLHWYLQKPGQSPQLLIYKVSNRFSGVPDRFSGSGSGTDFTLKISRVEAEDVGVYYCSQNTHVPPTFGQGTKVEIERTVAAPSVFIFPPSDEQLKSGTASVVCLLNNFYPREAKVQWKVDNALQSGNSQESVTEQDSKDSTYSLSSTLTLSKADYEKHKVYACEVTHQGLSSPVTKSFNRGEC
